Residue numbers refer to the chain shown, from its start. Like-named read-outs stand apart in the source and are kept apart here. Oligonucleotides are written 5' to 3', each unit as a sugar letter and its base; * is a phosphorothioate linkage, no mark a phosphodiester; rarer units and linkages stand in square brackets, end groups in braces. Plain capitals give the bases only. d = 2'-deoxy (DNA); r = 2'-OH (RNA); f = 2'-fluoro
B1: AMX236.A11: DNA SELEX 2 aptamer clone (nucleic acid)
chain: CTACCTACGATCTGACTAGCTTGGTAGCGACTCTGTGGAGCTGCGGTCTGGCCGACGTCAGCTTACTCTCATGTAGTTCC
modifications: DNA, backbone not given here
notes: DNA SELEX 2 aptamer clone
B2: AMX237.H8: DNA SELEX 2 aptamer clone (nucleic acid)
DNA: B1 chain with C33T, C48T, C52T, G57A
modifications: DNA, backbone not given here
notes: DNA SELEX 2 aptamer clone
B3: AMX236.E6: DNA SELEX 2 aptamer clone (nucleic acid)
chain: B1 chain with T32C, C48T, C52T
modifications: DNA, backbone not given here
notes: DNA SELEX 2 aptamer clone
B4: AMX236.C12: DNA SELEX 2 aptamer clone (nucleic acid)
chain: B1 chain with T34C, C48T, C52T
modifications: DNA, backbone not given here
notes: DNA SELEX 2 aptamer clone
B5: AMX237.H10: DNA SELEX 2 aptamer clone (nucleic acid)
DNA: B1 chain with T34A, T36A, C48T, C52T
modifications: DNA, backbone not given here
notes: DNA SELEX 2 aptamer clone
B6: AMX237.D5: DNA SELEX 2 aptamer clone (nucleic acid)
DNA: B1 chain with T32A, C48T, C52T, C53T
modifications: DNA, backbone not given here
notes: DNA SELEX 2 aptamer clone
B7: AMX236.G4: DNA SELEX 2 aptamer clone (nucleic acid)
chain: B1 chain with C33T, C41A, C48T, C52T, C53T
modifications: DNA, backbone not given here
notes: DNA SELEX 2 aptamer clone
B8: AMX.236.G1 (nucleic acid)
chain: CTACCTACGATCTGACTAGCCTCAGATTGACTCCGGCTGACTTGTTTTAATCTTCTGAGTGCTTACTCTCATGTAGTTCC
modifications: DNA, backbone and methylation of C not given here
B9: AMX236.C1: DNA SELEX 2 aptamer clone (nucleic acid)
chain: CTACCTACGATCTGACTAGCGGAATGAGAATGTTGGTGGATTGCTCAGGTCTGCTGGCTGCTTACTCTCATGTAGTTCC
modifications: DNA, backbone not given here
notes: DNA SELEX 2 aptamer clone
B10: AMX238.F5: DNA SELEX 2 aptamer clone (nucleic acid)
DNA: CTACCTACGATCTGACTAGCGGAATGAGAAGCTGGTGGATTGCTCAGGTCTGCTGGCTGCTTACTCTCATGTAGTTCC
modifications: DNA, backbone not given here
notes: DNA SELEX 2 aptamer clone

Assays:
[1] = test system: full length human vWF binding to lyophilized platelets; assay: Full length human von Willebrand Factor platelet binding assay (FACS); type: cell-based; conditions: 5 nM full length human vWF, lyophilized platelets, botrocetin; for Inhibition of full length hVWF binding in FACS assay, IC50 range: both bounds in nM
Experimental: The amount of vWF bound to fixed platelets can be measured with an antibody to vWF. The fluorescence signal from bound antibody incubated with a fluorescein conjugated secondary antibody is then detected and quantified by flow cytometry. The ability of an aptamer of the invention to block vWF binding to platelets is correlated with a reduction in fluorescence signal.
Aptamer potency to block human vWF binding to lyophilized platelets was assessed by flow cytometric analysis. Titrations of aptamers (0 nM, 0.1 nM to 1000 nM) were pre-incubated briefly with 5 nM of full length human vWF in FACS buffer (PBS plus 0.5% bovine serum albumin) at room temperature in a volume of 50 uL. Another 50 uL containing 5 uL of lyophilized platelets plus 1 uL of 0.1 U/uL of botrocetin in FACS buffer was added to aptamer/vWF. This reaction was allowed to proceed for 15 minutes at 37 degrees C. after which 200 uL of FACS buffer was added. Platelets were collected by a 6 minute spin at 1470 RCF and the supernatant was discarded. The pellets were resuspended in 100 uL of FACS buffer containing a 1:100 dilution of anti-vWF antibody and were incubated at room temperature for 30 minutes. After dilution with 200 uL of FACS buffer, the platelets were spun at 1470 RCF for 6 minutes and the supernatant was discarded. The pellets were resuspended in a 1:100 solution of anti-IgG2a-FITC antibody and were incubated in the dark for 30 minutes at room temperature. The entire 100 uL was diluted into 200 uL of FACS buffer and analyzed immediately by flow cytometric analysis in the FACSCAN. Artifactual data from contaminating debris was eliminated from the analysis by drawing a gate around the population of single and aggregated platelets. Mean fluorescent intensity (“MFI”) readings were quantified for each sample analyzed by flow cytometry. Background MFI was subtracted from all data points. Percent inhibition was reported by calculating the percent value of binding of full length human vWF to platelets in the presence of aptamer at a given concentration relative to binding in the absence of any aptamer (see FIG. 7). IC50 values were determined by fitting the percent inhibition of vWF binding to platelets as a function of aptamer concentration to the equation: % inhibition=% inhibitionmax/(1+IC50/aptamer conc.)

[2] = test system: full length human vWF (SEQ ID NO 7); assay: dot blot KD determination and extent of binding, full length human vWF; conditions: rRdY minimers; 8 point titration 0-300 nM; read-out: Full length human vWF KD;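 further: dot blot binding of aptamers to full length human vWF across a protein titration, incubated 30 minutes at room temperature in 1x DPBS with BSA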
[3] = test system: rabbit vWF A1 domain (SEQ ID NO 6); assay: 3-point dot blot screen, rabbit vWF A1 domain; type: binding; conditions: 3-point dot blot screen, 20 nM rabbit vWF A1 domain; ratio of fraction of aptamer bound with target protein to fraction bound without protein
From the text: When a significant positive ratio of binding of RNA in the presence of human or rabbit vWF A1 domain versus in the absence of protein was seen, the pools were cloned using the TOPO TA cloning kit (Invitrogen, Cat. #45-0641, Carlsbad, Calif.) according to the manufacturer's instructions. Round 9 and 12 pool templates were cloned and sequenced (125 total sequences), producing 48 unique clones. All unique clones were transcribed, desalted, 5-^32P end-labeled, and assayed in a 3-point dot blot screen (no protein target control, 100 nM human vWF A1 domain (SEQ ID NO 5, FIG. 3), or 100 nM rabbit vWF A1 domain (SEQ ID NO 6, FIG. 3). The data is presented in the third and fourth columns of Table 4 below as the ratio of the fraction of the aptamer bound to the nitrocellulose in the presence of the target protein to the fraction of aptamer bound in the absence of the target protein.
When a significant positive ratio of binding of RNA in the presence of human or rabbit vWF A1 domain (SEQ ID NOS 4 and 6, respectively) versus in the absence of protein was seen, the pools were cloned using the TOPO TA cloning kit (Invitrogen Cat. #45-0641, Carlsbad, Calif.) according to the manufacturer's instructions. Round 9 and 12 pool templates were cloned and sequenced (185 total sequences), producing 78 unique clones within 3 sequence families. All unique clones were transcribed, desalted, 5-^32P end-labeled, and assayed in a 3-point dot blot screen (no protein target control, 100 nM human vWF A1 domain (SEQ ID NO 5), or 100 nM rabbit vWF A1 domain (SEQ ID NO 6). The data are presented in the third and fourth columns of Table 9 below as the ratio of the fraction of the aptamer bound to the nitrocellulose in the presence of the target protein to the fraction of aptamer bound in the absence of the target protein. Of the three sequence families, members of Family #1 and #2 and two individual, non-family aptamers, bound to both human vWF domain A1 (SEQ ID NO 5) and rabbit vWF domain A1 (SEQ ID NO 6).
All unique clones were assayed in a 3-point dot blot screen (no protein target control, 100 nM human vWF A1 domain (SEQ ID NO 5), or 100 nM rabbit vWF A1 domain (SEQ ID NO 6). The data are presented in the third and fourth columns of Table 14 below as the ratio of the fraction of the aptamer bound to the nitrocellulose in the presence of the target protein to the fraction of aptamer bound in the absence of the target protein.
(§1) When a significant positive ratio of binding of DNA in the presence of human or rabbit vWF A1 domain versus in the absence of protein was seen, the pools were cloned using the TOPO TA cloning kit (Invitrogen Cat. #45-0641, Carlsbad, Calif.) according to the manufacturer's instructions. Round 7 and 11 pool templates were cloned and sequenced (218 total sequences), producing 146 unique clones within 12 sequence families of which sequences from six families show vWF target binding activity. All unique clones were assayed twice in a 3-point dot blot screen (no protein target control, 20 nM full length human vWF (Calbiochem Cat. #681300, La Jolla, Calif.), or 20 nM rabbit vWF A1 domain. The data is presented in the third and fourth columns of Table 17 below as the ratio of the fraction of the aptamer bound to the nitrocellulose in the presence of the target protein to the fraction of aptamer bound in the absence of the target protein.

[4] = test system: full length human vWF; assay: 3-point dot blot screen, full length human vWF; type: binding; conditions: 20 nM full length human vWF, ratio of fraction of aptamer bound with target protein to fraction bound without protein
From the text: as §1

[5] = read-out: Inhibition of full length hVWF binding in FACS assay, Average IC50
[6] = units in the cell: lower bound pM, upper bound nM, read-out: Inhibition of full length hVWF binding in FACS assay, IC50 range

Sequence of rabbit vWF A1 domain (SEQ ID NO 6) (as listed by the source): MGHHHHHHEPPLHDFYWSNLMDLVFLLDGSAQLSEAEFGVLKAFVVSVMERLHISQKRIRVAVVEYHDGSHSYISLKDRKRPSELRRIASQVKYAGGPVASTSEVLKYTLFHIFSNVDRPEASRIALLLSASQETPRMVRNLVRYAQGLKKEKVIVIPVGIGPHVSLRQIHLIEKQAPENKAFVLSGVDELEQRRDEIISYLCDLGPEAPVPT

Molecule	IC50 [1, 5] [pM]	Screen Rabbit/No Protein [3]	Screen- Human/No Protein [4]	other results
GGACCACCCUCGCAAGCAUUGAGAAAUGACUUGUGCCGCUGGUCC (rGrGrAfCfCrAfCfCfCfUfCrGfCrArArGfCrAfUfUrGrArGrArArAfUrGrAfCfUfUrGfUrGfCfCrGfCfUrGrGfUfCfC) [SEQ ID NO 172, minimized rRfY aptamer]	4300			
GGACCACCCUCGCAAGCAUUUUAAGAAUGACUUGUGCCGCUGGUCC (rGrGrAfCfCrAfCfCfCfUfCrGfCrArArGfCrAfUfUfUfUrArArGrArAfUrGrAfCfUfUrGfUrGfCfCrGfCfUrGrGfUfCfC) [SEQ ID NO 169, minimized rRfY aptamer]	6900			IC50 [1, 6]: 103 to 17000 pM
GGAGCCACACGACATTGGCGAGAGCCACGCATGGCTCC (chemistry not given here) [SEQ ID NO 194, minimized rRdY aptamer]				Inhibition of full length hVWF binding in FACS assay, IC50 range [1]: no activity
GGAGCCACACGACATTGGCGGGTTGTAATTACCACGCATGGCTCC (rGrGrArGdCdCrAdCrAdCrGrAdCrAdTdTrGrGdCrGrGrGdTdTrGdTrArAdTdTrAdCdCrAdCrGdCrAdTrGrGdCdTdCdC) [SEQ ID NO 189, minimized rRdY aptamer]	1100			Kd [2]: 1 nM; IC50 [1, 6]: 564 to 1600 pM
GGAGCCACACGAGAGTGGCGGGTTGTAATTACCACGCATGGCTCC (chemistry not given here) [SEQ ID NO 196, minimized rRdY aptamer]				Inhibition of full length hVWF binding in FACS assay, IC50 range [1]: no activity
GGAGCGCACTCAGCCACACGACATTGGCGGGTTGTAATTACCACGCATGGCTG (chemistry not given here) [SEQ ID NO 186, minimized rRdY aptamer]	1300			IC50 [1, 6]: 971 to 2200 pM
GGAGCGCACTCAGCCACGGGGTGGGTAGACGGCGGGTATGTGGCT (chemistry not given here) [SEQ ID NO 177, minimized rRdY aptamer]	3000			
GGAGCGCACUCAGCCACCCUCGCAAGCAUUUUAAGAAUGACUUGUGCCGCUGGCU G (rGrGrArGfCrGfCrAfCfUfCrArGfCfCrAfCfCfCfUfCrGfCrArArGfCrAfUfUfUfUrArArGrArAfUrGrAfCfUfUrGfUrGfCfCrGfCfUrGrGfCfUrG) [SEQ ID NO 165, minimized rRfY aptamer]	6400			IC50 [1, 6]: 562 to 14400 pM
GGAGCTCCAGTGTTTTATCTAATAACCGTGCGGTGCCTCCGTGAGCTCC (chemistry not given here) [SEQ ID NO 209, minimized DNA aptamer]				Inhibition of full length hVWF binding in FACS assay, IC50 range [1]: no activity
GGAGCTGCGGTTTGGTCGACGTCAGCTCC (DNA, backbone not given here) [SEQ ID NO 210, minimized DNA aptamer]				Inhibition of full length hVWF binding in FACS assay, IC50 range [1]: no activity
GGTAGCGACTCTGTGGAGCTGCGGTTTGG (DNA, backbone not given here) [SEQ ID NO 211, minimized DNA aptamer]				Inhibition of full length hVWF binding in FACS assay, IC50 range [1]: no activity
B1		2.02	2.02	
B2		1.41	1.21	
B3		1.49	1.31	
B4		2.24	1.99	
B5		1.94	1.71	
B6		1.48	1.41	
B7		1.72	1.70	
B8	46000			
B9		3.28	1.03	
B10		4.40	1.05	
